Our source for the IC50 and Ki values is patent US20120207676.

Experiment [1] has as its target T1, Neurotensin receptor NTS1 (HT29 cells/membranes) (human), P30989. In words: competition, HT29 cells. The settings on record: modification not given.
The target of experiment [2] is T1, Neurotensin receptor NTS1 (HT29 …). In words: competition, HT29 membranes. The settings on record: modification not given.

T1 sequence (P30989 whole entry): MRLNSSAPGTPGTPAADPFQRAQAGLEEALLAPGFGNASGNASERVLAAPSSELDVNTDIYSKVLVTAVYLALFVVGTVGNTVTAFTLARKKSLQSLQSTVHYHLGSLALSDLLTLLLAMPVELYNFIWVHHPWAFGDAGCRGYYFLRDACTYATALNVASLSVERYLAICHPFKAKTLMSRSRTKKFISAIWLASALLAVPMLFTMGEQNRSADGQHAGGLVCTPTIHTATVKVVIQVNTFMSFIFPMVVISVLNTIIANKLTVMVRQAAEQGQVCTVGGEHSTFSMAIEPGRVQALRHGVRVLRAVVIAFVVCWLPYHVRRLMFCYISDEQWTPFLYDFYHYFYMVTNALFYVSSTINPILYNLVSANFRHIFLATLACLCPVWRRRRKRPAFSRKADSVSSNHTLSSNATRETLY

By IC50 is commonly meant the concentration that gives 50% inhibition. The low end stands for higher potency, the high end for lower potency. The term Ki denotes a dissociation constant, usually derived from enzyme kinetics or from competition with a known ligand. A low value points to higher affinity. KPRRPYIL [DTPA(In)-NT-20.2]: the IC50 in experiment [1] came to 41.2 nM. In addition, in experiment [2], the Ki stood at 1.55 nM.

As for KPRRPYIL [DTPA(In)-NT-20.1], the IC50 in experiment [1] amounted to 6.73 nM. The molecule further registered a Ki in experiment [2] of 0.66 nM.

Take KPRRPYIL [NT-20.2]: the IC50 in experiment [1] is 2.46 nM. The molecule further yielded a Ki in experiment [2] of 0.26 nM.

For the molecule KPRRPYIL [DOTA(In)-LB119], the IC50 in experiment [1] came to 14.1 nM. In other words, the double-digit nanomolar range.

KPRRPYIL [DOTA(Y)-LB119] showed an IC50 in experiment [1] of 9.9 nM. The IC50 values of the last two molecules are within 1.5-fold of each other.

The molecule KPRRPYIL [DOTA(Ga)-LB119] gave an IC50 in experiment [1] of 7.5 nM.

On to KPRRPYIL [NT-20.1], for which the concentration for half-maximal inhibition (IC50) in experiment [1] was 0.82 nM. The Ki in experiment [2] came to 0.072 nM.
